The record followed here is PMC10288639.

The target of assay [1] is G120C/H31C HLA-A*02:01/β2m complex (open HLA-A*02:01). As to the kind of experiment: fluorescence polarisation.
The next assay addresses WT HLA-A*02:01/β2m. As to the kind of experiment: fluorescence polarisation. On the technique in general: In fluorescence polarisation assays a small probe gives low polarisation when free and higher when bound to something large.

pIC50: −log10 of the molar value.

As to “fluorophore-labeled TAX9 (TAMRA-TAX9) (peptide)”, the fold of the apparent association rate constant k^app on over WT in assay [1] was above 10 fold. Broadly, the pIC50 is −log10 of the IC50, conventionally taken in molar units. The low end stands for a high IC50, the high end for a low IC50. Regarding TAX9 (peptide), the pIC50 (in assay [1]; with WT HLA-A*02:01/β2m) was 6.60 in each case.
